In paper doi:10.1101/2024.07.24.604550 (bioRxiv, 2024):
One block for each binder: values may come before it.

Columns and labels:
GST-ECT1 [1] = molecular target: T1, GST-ECT1 (Arabidopsis thaliana (Col-0), UniProt Q3MK94 1-428); test: EMSA
T1 sequence: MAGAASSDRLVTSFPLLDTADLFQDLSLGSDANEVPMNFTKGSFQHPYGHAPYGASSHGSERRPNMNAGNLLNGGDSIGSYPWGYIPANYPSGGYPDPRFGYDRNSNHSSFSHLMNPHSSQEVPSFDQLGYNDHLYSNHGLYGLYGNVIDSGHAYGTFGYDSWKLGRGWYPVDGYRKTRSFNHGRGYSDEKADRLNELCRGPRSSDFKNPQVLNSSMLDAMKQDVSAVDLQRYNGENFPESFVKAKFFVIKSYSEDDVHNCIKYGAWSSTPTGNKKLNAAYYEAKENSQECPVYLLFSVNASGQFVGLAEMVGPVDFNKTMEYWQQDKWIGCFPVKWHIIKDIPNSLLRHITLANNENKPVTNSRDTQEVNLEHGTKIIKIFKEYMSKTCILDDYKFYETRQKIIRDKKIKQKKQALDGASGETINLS

GST-ECT1 [2] = molecular target: T2, GST-ECT1 (Arabidopsis, UniProt Q3MK94 1-428); test: pull-down
T2 sequence (looked up): T1 sequence

Binder: UCUUUUGUAAGACUUGUACUCUUUA (ssRNA, m6A at position 9) [UGUm6AA RNA]
- binding result (GST-ECT1 [1]): binds

Binder: UCUUUUGUAAGACUUGUACUCUUUA (ssRNA) [UGUAA RNA (unmodified)]
- binding result (GST-ECT1 [1]): no binding

- binding result (GST-ECT1 [2]): binds
B1: MBP-ECT1 (natural protein, Arabidopsis, UniProt Q3MK94 1-428, looked up)
chain: T1 sequence
